5 proteins from paper PMC3242506 (Biochemical Journal, 2011) can be followed below.

Data set [1] deals with the molecule itself. Briefly: cross-linking.
Data set [2] deals with the molecule itself. In words: SDS/PAGE and Western blot without cross-linker.
Data set [3] concerns the molecule itself. Briefly: cross-linking. The source holds these as a separate data set.

B1: domain II of human TPC2 (TPC2^422–752) (domain or fragment, UniProt Q8NHX9 422-752, looked up)
chain: LQSAQFLFGHYYFDYLGNLIALANLVSICVFLVLDADVLPAERDDFILGILNCVFIVYYLLEMLLKVFALGLRGYLSYPSNVFDGLLTVVLLVLEISTLAVYRLPHPGWRPEMVGLLSLWDMTRMLNMLIVFRFLRIIPSMKLMAVVASTVLGLVQNMRAFGGILVVVYYVFAIIGINLFRGVIVALPGNSSLAPANGSAPCGSFEQLEYWANNFDDFAAALVTLWNLMVVNNWQVFLDAYRRYSGPWSKIYFVLWWLVSSVIWVNLFLALILENFLHKWDPRSHLQPLAGTPEATYQMTVELLFRDILEEPGEDELTERLSQHPHLWLCR
As to B1, the “stoichiometry N” value in the data set “cross-linking [1]” was determined as 2.2.

B2: domain I of human TPC2 (TPC2^1–339) (domain or fragment, UniProt Q8NHX9 1-339, looked up)
chain: MAEPQAESEPLLGGARGGGGDWPAGLTTYRSIQVGPGAAARWDLCIDQAVVFIEDAIQYRSINHRVDASSMWLYRRYYSNVCQRTLSFTIFLILFLAFIETPSSLTSTADVRYRAAPWEPPCGLTESVEVLCLLVFAADLSVKGYLFGWAHFQKNLWLLGYLVVLVVSLVDWTVSLSLVCHEPLRIRRLLRPFFLLQNSSMMKKTLKCIRWSLPEMASVGLLLAIHLCLFTMFGMLLFAGGKQDDGQDRERLTYFQNLPESLTSLLVLLTTANNPDVMIPAYSKNRAYAIFFIVFTVIGSLFLMNLLTAIIYSQFRGYLMKSLQTSLFRRRLGTRAAFE
B2: the “stoichiometry N” value in data set [2] was determined as 2; in the data set “cross-linking [1]”, 2.3.

B3: domain I of human TPC1 (TPC1^1–347) (domain or fragment)
chain: not shown
Consider B3, for which the “stoichiometry N” value in the data set “cross-linking [1]” stood at 2.1.

B4: domain II of human TPC1 (TPC1^427–816) (domain or fragment)
chain: not shown
modifications: N-glycosylated (bands sensitive to PNGase F)
Regarding B4, the “stoichiometry N” value came to 2 in data set [2] and 2.2 in “cross-linking [1]”.

B5: first four TM regions of human TPC1 (TPC1^1–225) (domain or fragment)
chain: not shown
In the case of B5, the “stoichiometry N” value in “cross-linking [3]” was 2.

Usually stoichiometry N stands for a count of units in the complex or per binding partner.
